Results taken from the supplement of paper PMC10567573.
± gives the standard deviation.

Experiment: protein stability index of a GFP-peptide fusion (GPS, HEK-293T) (PSI 1-6); higher = more stable
[1] = treatment: DMSO, c terminus: a fixed tail appended
[2] = treatment: MLN4924 1 uM, 8 h, c terminus: a fixed tail appended
[3] = treatment: DMSO, c terminus: native
[4] = treatment: MLN4924 1 uM, 8 h, c terminus: native
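Also: 24-mer peptide tiles fused after GFP, lentivirally expressed, FACS-sorted into six equal bins by GFP/DsRed ratio, decoded by Illumina sequencing, PSI is the read-weighted mean bin number.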

Row | Sequence | protein stability index [1] | protein stability index [2] | protein stability index [3] | protein stability index [4]
1 | PQVLADLGSFESPANSETSDLTLY [PCDHGA10] | 4.19 ± 0.36 | 4.38 ± 0.34 | – | –
2 | DRVVAFMDHIRIFQEQVEKLKALH [NR2F2] | 2.28 ± 0.36 | 2.22 ± 0.36 | – | –
3 | NPKWTKWLQKLCCPCCFGRDCLVL [PI4K2A] | 2.79 ± 0.3 | 2.72 ± 0.15 | – | –
4 | VIFALCWFPLHLSRILKKTVYNEM [EDNRA] | 3 ± 0.64 | 2.92 ± 0.68 | – | –
5 | DYNQAEMKQRDNCKIRIQRQLEIM [STX11] | 2.9 ± 0.19 | 3.15 ± 0.31 | – | –
6 | AIVGGMALGVAGLAGLIGLAVSKS [FIS1] | 3.38 ± 0.82 | 3.12 ± 0.51 | – | –
7 | DSEDFPQAAKQIKDGVTMAPAFRL [FSD1] | 4.24 ± 0.11 | 4.33 ± 0.28 | – | –
8 | VPSESEPPALQNNLLSPLLTGTES [NFE2L1] | 4.92 ± 0.1 | 5.07 ± 0.18 | – | –
9 | FCLQKLISLHPFNPWNWGKLAEAY [C8orf76] | 2.85 ± 0.49 | 2.82 ± 1.3 | – | –
10 | GLLQLDHRGLRCSWEGLAVLDSLL [RSAD1] | 2.31 ± 0.56 | 2.06 ± 0.31 | – | –
11 | VDALKSDKKVRTIIIRSEVPGIFC [AUH] | 2.01 ± 0.38 | 2.35 ± 0.73 | – | –
12 | GYREDNIPQLEDVSNFLKERTGFS [TPH1] | 3.75 ± 0.24 | 3.99 ± 0.42 | – | –
13 | IIISEPMGYMLFNERMLESYLHAK [CARM1] | 2.66 ± 0.41 | 2.51 ± 0.35 | – | –
14 | ALAPKQELPSALESHEVPGTLSMG [ZNF24] | 4.59 ± 0.25 | 4.75 ± 0.3 | – | –
15 | FGAVVRWAEAECQRQQLPVTFGNK [BTBD1] | 2.57 ± 0.3 | 2.84 ± 0.18 | – | –
16 | RKRMKMDKTCSKTKNKSKHALRKK [FAM9B] | 4.23 ± 0.45 | 4.66 ± 0.3 | – | –
17 | SNMCINNTLVCNGLQNCVYPWDEN [NETO1] | 3.29 ± 0.082 | 3.36 ± 0.44 | – | –
18 | KSLSELVDDKFGTGTKKVTRILDG [PSD2] | 4.44 ± 0.18 | 4.53 ± 0.23 | – | –
19 | NLIYRDVKPENFLIGRPGNKTQQV [CSNK1G3] | 3.27 ± 0.1 | 3.25 ± 0.22 | – | –
20 | REHRVRRIHVRRHITHDERPHGQQ [KCTD13] | 4.36 ± 0.21 | 4.45 ± 0.29 | – | –
21 | ETRQKKLEVAMEEEGLADEEKKLR [STK38L] | 5.51 ± 0.18 | 5.6 ± 0.21 | – | –
22 | DTLISQESCEKNDPLSLLDDSKFP [PCDHGA10] | 5.05 ± 0.18 | 4.93 ± 0.2 | – | –
23 | QRELHSHVTNAMVLVNVLQAIYVI [DHCR7] | 2.61 ± 0.59 | 2.78 ± 0.61 | – | –

Row | Sequence | protein stability index [1] | protein stability index [2] | protein stability index [3] | protein stability index [4]
24 | AQSEAEKKLKKDDKKKELQELNEL [ZC3H15] | 5.56 ± 0.23 | 5.53 ± 0.21 | – | –
25 | HIDAIILALPEDLQGILLKTGMT [DENND6A] | – | – | 2.31 ± 0.59 | 2.59 ± 0.67
26 | TKFQELQLAAGRHGDDLKNTKNEI [KRT71] | 4.12 ± 0.39 | 4.28 ± 0.13 | – | –
27 | ESKMYATSPYSDPVVSMDLDPQPI [PTPRD] | 4.18 ± 0.53 | 4.42 ± 0.047 | – | –
28 | FLRSIDQFANLVLHQTVERIHVGK [LSM1] | 2.95 ± 0.55 | 2.46 ± 0.39 | – | –
29 | EECIPEHMVRESKIMEAESQKATR [FAN1] | 5.12 ± 0.77 | 4.72 ± 1.2 | – | –
30 | IPEKDMDERRRLLEQKTQESQKKK [ZNF207] | 5.51 ± 0.27 | 5.59 ± 0.11 | – | –
31 | PSLQAWNDAPCDKTFLFICKRPYV [CD207] | 2.17 ± 0.28 | 2.2 ± 0.21 | – | –
32 | MSAPGSPDQAYDFLLKFLLVGDRD [RAB40A] | 2.27 ± 0.23 | 2.42 ± 0.38 | – | –
33 | VLQALFYLLDRAVDSFETQRNGLV [PTPN9] | 2.45 ± 0.98 | 2.66 ± 0.62 | – | –
34 | DQKVIELVKKYGTKQWTLIAKHLK [MYBL2] | 2.77 ± 0.91 | 3.12 ± 0.49 | – | –
35 | HLSGSHNTLAPTCFKAKLHRKRGS [RSPH3] | 3.67 ± 0.14 | 3.77 ± 0.37 | – | –
36 | QLRSDVCTPGGTTIYGLHALEQGG [PYCR3] | 3.69 ± 0.23 | 3.61 ± 0.51 | – | –
37 | YGDWTSGENSDGCYEHFAELDIPQ [CLPTM1] | 4.54 ± 0.23 | 4.63 ± 0.26 | – | –
38 | GLDVLLAQEVRPRRWKLQVLDLRK [PRAME] | 2.31 ± 0.46 | 2.33 ± 0.48 | – | –
39 | RNPVSLVVTRLVILGSGEEGPQVG [ADAMTS4] | 2.83 ± 0.2 | – | – | –
40 | EARARARANRGILQQERQRLGQRQ [DNAJC4] | 4.74 ± 0.28 | 4.65 ± 0.14 | – | –
41 | PVPVIVSNFNYFYHRETEGEEQSQ [KCNA3] | 3.81 ± 0.34 | 4.15 ± 0.28 | – | –
42 | KAFRSDSSFNFFVFFFIFFVQDVL [SCAMP3] | 3.36 ± 0.43 | 3.25 ± 0.17 | – | –
43 | CSSSTRSVLKRPERSQEESPPGST [CDC25A] | 5.17 ± 0.21 | 4.95 ± 0.34 | – | –
44 | LYVRRVFIMDSCDELIPEYLNFIR [HSP90AB1] | 2.37 ± 0.58 | 2.68 ± 0.86 | – | –
45 | LHTANLGDSGFLVVRGGEVVHRSD [PPTC7] | 3.62 ± 0.11 | 3.76 ± 0.14 | – | –
46 | QNEEYLLTYINEDRISTTFRLTTL [PLK2] | 2.6 ± 0.37 | 2.29 ± 0.58 | – | –

Row | Sequence | protein stability index [1] | protein stability index [2] | protein stability index [3] | protein stability index [4]
47 | DGVEVDDSYCDALTRPEPVHEFCA [ADAMTSL2] | 4.57 ± 0.23 | 4.86 ± 0.24 | – | –
48 | SHQELHRELLMNHRRGLGVDSKPE [FAM107A] | 4.61 ± 0.22 | 4.57 ± 0.2 | – | –
49 | NHVAVAARYAQQKHRIRRVLIVDW [HDAC6] | 2.34 ± 0.72 | 2.09 ± 0.27 | – | –
50 | DRSVQRLLATRIAVYLMTFLIVTV [TMEM175] | 3.15 ± 0.3 | 3.31 ± 0.31 | – | –
51 | GRTENGALAPKQELPSALESHEVP [ZNF24] | 5.24 ± 0.1 | 5.27 ± 0.086 | – | –
52 | DYLYTKQLSPNLDLDPLELIALAN [RHOBTB1] | 2.31 ± 0.28 | 2.3 ± 0.33 | – | –
53 | VGIFNTVINPMLNPIIYSFRNPDV [OR3A1] | 2.34 ± 0.48 | 3.03 ± 0.83 | – | –
54 | LKNTPRFKRRRVRRRRMETIVFLD [PCMTD2] | 2.9 ± 0.19 | 3.33 ± 0.3 | – | –
55 | HFSFNVKFYPPDPAQLSEDITRYY [EPB41L3] | 2.21 ± 0.24 | 2.12 ± 0.12 | – | –
56 | PGQEAQRVVCGIDSSMILTVPGQA [NEK8] | 3.78 ± 0.23 | 3.81 ± 0.22 | – | –
57 | TACAVIILTIICYLGLPRLEFYRY [SLC29A1] | 3.04 ± 0.18 | 3.1 ± 0.13 | – | –
58 | LSRKLMQLQHEKAELEQHLEQEQE [CCDC6] | 5.27 ± 0.27 | 5.02 ± 0.2 | – | –
59 | EQHAGTSEGLHLAGTAGHPPSGSQ [FBF1] | 5.19 ± 0.3 | 5.2 ± 0.15 | – | –
60 | KDKRRIVSSSQDGKVIVWDSFTTN [GNB5] | 3.63 ± 0.049 | 3.8 ± 0.19 | – | –
61 | LQAESPPVDPDSQADTVHSNPELD [DNAAF3] | 5.7 ± 0.17 | 5.63 ± 0.27 | – | –
62 | LYFHHYFPAMLFSSMLTGILWDTL [POMT2] | 2.84 ± 0.34 | 3.21 ± 0.23 | – | –
63 | EKRGFTSHFVFVIEVKTKGGSKYL [NCF4] | 3.02 ± 1.1 | 3.64 ± 1.1 | – | –
64 | SLAYCLACGGGHLLPYFYIIYMAI [DHCR7] | 2.6 ± 0.64 | 2.45 ± 0.31 | – | –
65 | FPEALDELPLPPFLQPLDLTGKG [ANKRD9] | – | – | 3.43 ± 0.22 | 3.52 ± 0.12
66 | KKFYEAFSKNLKLGIHEDSTNRRR [HSP90AB1] | 3.39 ± 0.33 | 3.59 ± 0.51 | – | –
67 | TLICRKLGGVKKSATLRSFEGLMG [TPD52L3] | 2.06 ± 0.16 | 2.34 ± 0.33 | – | –
68 | SELPPPMERTGGIGDSRPPSFHPH [DVL3] | 4.55 ± 0.25 | 4.61 ± 0.09 | – | –
69 | PEARSRDATPPVSPINMEDQERIK [JUNB] | 5.37 ± 0.38 | 5.42 ± 0.33 | – | –

Row | Sequence | protein stability index [1] | protein stability index [2] | protein stability index [3] | protein stability index [4]
70 | GPDGHLPAVATLCDLFDREIVVTI [ESRRA] | 3.01 ± 0.7 | 2.91 ± 0.41 | – | –
71 | NKQAYDLAKALLKRTAQAIEPYIT [PDS5B] | 2.54 ± 0.46 | 2.63 ± 0.37 | – | –
72 | FREVYVGKETMCTVDGLHFNSTYN [TRIM9] | 2.23 ± 0.098 | 2.4 ± 0.28 | – | –
73 | PPGDIMFLLVQRFGELMRKLWNPR [USP39] | 2.77 ± 0.31 | 2.77 ± 0.17 | – | –
74 | VKDTDDVPMILVGNKCDLEDERVV [RAP1B] | 4.65 ± 0.45 | 5.02 ± 0.16 | – | –
75 | SSPRGMVRVCDLLLKKKPPQQQHH [ANKRD17] | 3.2 ± 0.23 | 3.28 ± 0.13 | – | –
76 | NGHTDVADVLLQAGADLEHESEGG [ANKRD17] | 5.37 ± 0.17 | 5.28 ± 0.048 | – | –
77 | MLRTGLGVIRMWADEGSRNSRFQM [NETO1] | 2.5 ± 0.11 | 2.39 ± 0.4 | – | –
78 | LAQEAEAWLNYPCFKNWDGSPVSS [OAS1] | 3.04 ± 0.28 | 3.11 ± 0.35 | – | –
79 | SSKEEQKLIATSNKPAVKLLYNRS [KCTD10] | 3.9 ± 0.27 | 4.08 ± 0.48 | – | –
80 | SSNLSLDVLRGNDETIGFEDILND [POMP] | 5.08 ± 0.17 | 4.94 ± 0.32 | – | –
81 | GHGYDSKKQQELTAAVLGLICEGL [ZBED1] | 2.34 ± 0.31 | 2.09 ± 0.29 | – | –
82 | SDFLTLHSIIISLVEAGAHTDMTN [FEM1B] | 2.87 ± 0.43 | 2.93 ± 0.54 | – | –
83 | LTYSTRMSQTVQRMLVAASWACAF [OR3A1] | 3.35 ± 0.71 | 3 ± 0.65 | – | –
84 | YIKVDWQRVEKDMKKAKEQLKIRK [FUNDC2] | 2.46 ± 0.61 | 2.94 ± 0.74 | – | –
85 | HDTEIRKVHMKDVMSALWVSGLDS [GAN] | 2.78 ± 0.29 | 2.75 ± 0.4 | – | –
86 | QLLTLRELEMIGFIENNVSKLSLL [TRIP13] | 2.51 ± 0.28 | 2.66 ± 0.52 | – | –
87 | HLVIAEMMELGSRSRGASQKKQKL [FATE1] | 3.25 ± 0.14 | 3.34 ± 0.2 | – | –
88 | DQLIGQGIIVKDARLNGSVASYIL [TENT5D] | 2.3 ± 0.33 | 2.19 ± 0.45 | – | –
89 | MSVLWLEHDRETRMQYAPDLMKRL [KLHL14] | 2.35 ± 0.11 | 2.45 ± 0.15 | – | –
